The values that follow come from a protein production outcome set (Wang et al. 2014).

The data set can be described thus: label from the status in PepcDB records.
Turning to “MERRLGVRAWVKENRGSFQPPVCNKLMHQEQLKVMFIGGPNTRKDYHIEEGEEVFYQLEGDMVLRVLEQGKHRDVVIRQGEIFLLPARVPHSPQRFANTVGLVVERRRLETELDGLRYYVGDTMDVLFEKWFYCKDLGTQLAPIIQEFFSSEQYRTGKPIPDQLLKEPPFPLSTRSIMEPMSLDAWLDSHHRELQAGTPLSLFGDTYETQVIAYGQGSSEGLRQNVDVWLWQLEGSSVVTMGGRRLSLAPDDSLLVLAGTSYAWERTQGSVALSVTQDPACKKPLG”, the protein production entry is on record as “failed”. The value for “GSQPKLTEAVSLMEANIEEPLSTDDIAYYVGVSRRQLERLFKQYLGTVPSKYYLELRLNRARQLLQQTSKSIVQIGLACGFSSGPHFSSTYRNHFNITPREERAQRAQPGAL” was “not failed”; that for “SHPCFVQGRPELLSQIKRKQSARTVEDKQVNEQTQQNLEVVMAEMRAMREKAKNMEDKMNKLTKENRDMWTQMGSMRQQHARQQQYFKKLLHFLVSVMQPGLSKRVAKRGVLEIDFCAANGTAGPNSKRARMNSEEGPYKDVCDLLESLQRETQEPFSRRFTNNEGPLISEVTDEFGNSPVGRGSAQDLFGDTFGAQSSRYSDGGATSSREQSPHPIISQPQSNSAGAHGANEQKPDDMYMGSGPLTHENIHRGISALKRDYQGASPASGGPSTSSSAPSGAGAGARMAQKRAAPYKNATRQMAQPQQDYSGGFVNNYSGFMPSDPSMIPYQPSHQYLQPHQKLMAIEDQHHPTTSTSSTNADPHQNLYSPTLGLSPSFDRQLSQELQEYFTGTDTSLESFRDLVSNHNWDDFGNNVPLDDDEEGSEDPLRQLALENAPETSNYDGAEDLLFDNEQQYPENGFDVPDPNYLPLADEEIFPHSPALRTPSPS” was “failed”; that for “MGQFSLDSISSEISERKSFIGRINDEKLSSFDDVVKQRETKSWRAWRRSKRRRFTRKRHGLLASATAEGSESTVHARLNEEDLTAEIVFEECHVSGGELNDVVRLENEMLDRFYGAGFWRSPSQKDTSSGSL” was “failed”.

Take “MMKILGLIGGMSWESTIPYYRMINQHVKAQLGGLHSAKIILYSVDFHEIEQLQAKGDWQTAAQLLSNAAISLKHAGAEVIVVCTNTMHKVADDIEAACGLPLLHIADATAVQIKQQGIDKIGLLGTRYTMEQGFYRGRLTEKHGIEVITPDDTDREAVNRIIYEELCLGIISETSRDAYRRVIKKLEAQGVQGIIFGCTEITLLVNAQDASVPVFDTTAIHASAAADYALQ”: the protein production entry is recorded as “not failed”. The value for “VKTPGTRYVTHKQLDEKLKNFVTKTEFKEFQTVVMESFAVQNQNIDAQGEQIKELQVEQKAQGKTLQLILEALQGINKRLDNLES” was “not failed”; that for “GQTAKLVSLRDISDRKRMENQLRENQNKYYRLLENLDNGVIVHNANAEIVYANPKAESFLGLTDLEGRDIDDEYWMFFDKEGEKLEKEEFPVAQVLANQSSLKNFEMGIYRPDTDQLLWAYINAYPEFYNE” was “failed”; that for “MPHKLLPWLAIASAMSAFTLQAQPMPDTELLMGSYTQGKSEGIYRFGFNSQTGLIDAKPLQVIKSDNPSWLTLSKDQRHLFAVNENGPGQKDVVGKVSSFAIDPKTRQITPINQVQSRGEEPTHSSLSYDGRYLFVANYAVNPDPGGALTVVPVGKDGTLSEAVQVLPLGPGSKVNSERQLSSHVHLAVPTPDNKYVVSADLGADKLFVYRYDANQAKPLQPAKVPTVQLPGGSGPRHTLFSADGKHAWLVLEMTAQVAVFDYHDGGFKQTQLVDMKNKGVEEKNGGGALHTSPDGKFLYVTNRGDANQVVVFRIDQASGKLEEIQRRSLEGKEPREFAFDPTGKFMLFANQKSNQIVTVRRDPQSGMIGDTVQKFDADSPSYLRFLTEK” was “failed”.

On to “MTAFDPFEDFGDTEEIGERLNDADPAVRRLAVIDLAETANADVLPHLLTAVADPDATVRLQVAIALSEFDTVEAAAGLARLAADQDLTVAQAAADSLAELKDPATADSILPLVSHGRAFVRAAGFRGLKALRSRGALAPALAAMRDEDANVRAQALGVVAYLKLEETLPSLIAATRDAEAIVRSVAVNALSFTSQPAAAAAVTAALDDENWQVRAAAADTLGRIGQTSAVDGLTAGLSDEYWQVRQKCLNALGKLKAQSAVRQISELLTSDLASLRKESAAALGEIADPSSRAVLMHHIGDADPDVRKTVCWALTRLG”, for which the protein production entry is “failed”.

“MRLSFGITSKLFVALFALSMVVALAMGAAVRWRFDTNFLDYVNAREAERMAVFAQSIESVYAEHGNWGVLRNDRQAWYRLIRREIGRTHAGPFGGPRGDAEPVPPFAPPPGDVPPPGLPPPPPDAGDRPPQHPPGEGPGMHPPIWLLDAGRVPIVGDGPPPGPGSQWHALHHNGQTVGWLATPQRMHVPEGADQAFLAQQLRATWIIAALSVLLAAGVAILLARGVLAPMRRLAHATRRMAEGDYAARVDVHSGDEIGHLADDFNRLAETLEANQKMRRQLTADISHELRTPLAVLRGELEALEDGVRALTPASLTSLQAEVGTLSKLIDDLYELSLADVGALAFHMESIDLADTVCSAAQGFTPRLMDKRIALQLDLPTGPSRDAAIQGDPQRLRQLMQNLLENTLRYTDAGGTLRIHVHRAGAWWCLDVQDSAPGVPEAMLPRVFDRLFRADPSRGRAQGGAGLGLSLCQTIVQTHGGTIDARPSPLGGLWIAIRLPAANSSVADHDPDR”: the protein production entry is listed as “failed”. The value for “SFQTVPSTAETSAVLLQDSGWDALAQRLALIETAEHSIDIQYYIWNSDASGHYLASRLLAAADRGVKVRVMLDDINLNEREDLLVALNAHPHVEIRVFNPIPTRRGVTKWVNFLGDFSRLNRRMHNKSFTVDGVFSVVGGRNIGDEYFDLSNEINFRDRDVLVRGSVVYDIQTSFIEYWDSRWSYPVDLLAKEASQEPLLQKQPVLDEIDAPVYKNYPA” was “failed”; that for “MAFDLQEQEQIDSLKAFWQQWGKLIGGAVLAVSLGYLGYKAYGMYQRGQSEKAAAAYEAVDDAVAAKDIAKLKSAAQQLQGEYAGTLYASRAALVLAKAAFDKNDPALAASQLEWVLKNGKDEELQAIARLRLASLLLDQKKFDGAIGELNQAHPAAFDAEFLELKGDVFVAKGDSNGARDAYKAALAKMQGESPNRQLVQTKLDALGG” was “failed”; that for “MDISLLSTTSDPEQLRALAIAMVQKVMAENAELQNRIRILEEQMKLARQQRFGKKCESLAGMQRSLFEEDVDADIAEISAHLDKLLPQTGDEEKTTTRPVRKPLPSPLPRAEKVIPPAEERCPDCDAPLHFIRDEVSEKLEYIPAQVVVNRYIRPQYSCPCCEKVFSGKMPAHILPKSAVEPSVIAQVVISKYTDHLPLYRQQHIFSRMGVELPVSTMADMVGVAGAALAPLAKLLRHELLTRDVIHADETSLRLLDTRKGGKSCSGWLWAYVSGERVSVNGAPY” was “failed”. “EVNAAMNDGVICDMFEGHTPFKPRYVLPDYARYLQQGSEYLELSPAQDLDEALNALTILYHHVPSVTNIPVYLGQLDDILMPFVEGMDADALYRKLKLFWIMLDRTLPDAFMHVNLGPTDNIVCRTLLRIDAELKQVAPNLTFMYDPAVTPDELLQIATTNICQCSKPHIANYPQHASAFDACGFGIVSCYNALPLAGGANTLVRLNLKEVALKATSINDFFERVLPYYCSLTFELIEARSAFLHQESHFFDSFLVKEQLIDESRFAPMFGIYGMAEAVNILQAQMTSETDKSSQSNKPTGYGHSMDANQLGYRISAALDTIVKSTPVTYGYHGRALLHSQGGISLDKGVTPGVRIPYGTEPNPIAHIQALAQHHQYYTAGISDILTIDETVKSNPQAMFQLCKAALELGFREFTANVASNDLMRVTGYMVKRSDIEAFKQ”: the protein production entry is listed as “failed”.

On to “MKQKDLKRAYNNVLAQAISGSKQYLFAGNLFGDIFVLRIKELDKGSEEPPGKLKIFPQGSDVDINYLAFHRDFLIVGAVGLIYGLEWNEEEESLATKRSWEVKIPMQVDAVEVPDVNSMWLDSENSILFAGCGDGVIYQVSLEDGRIQREYRGHTDYVHSVVGNANGQIFSGAEDGTVRVWSTKQQQHTSMLEPYKNPNLLRPDWGKWIGAVAVNEDWLLCGGGPKASIFHLRSMESTCVFSFPGRVHLCDFVDDCVLIGGEHNHVQSYTLNGVLQANIPVEHTACYSAVWQTSPIKFISIAGFSNKLHILKDFRFLDSKIEMYGNVEGEENDPEEEDELIEKPLTVEAA”, for which the protein production entry is “failed”. Consider “MKRRSVLLSGVALSGTALANDSIFFSPLKYLGAEQQRSIDASRSLLDNLIPPSLPQYDNLAGKLARRAVLTSKKLVYVWTENFGNVKGVPMARSVPLGELPNVDWLLKTAGVIVELIVNFVASLPASAAAQFERIATGLSGDLEAARQVHEALLEEAKNDPAAAGSLLLRFTELQTRVIAILTRVGLLVDDILKSASNLVTQRGQGDGLNRFRAVFGTLRLPEVADSFRDDEAFAYWRVAGPNPLLIRRVDALPANFPLGEEQFRRVMGADDSLLEAAASRRLYLLDYAELGKLAPSGAVDKLLTGTGFAYAPIALFALGKDRARLLPVAIQCGQDPATHPMFVRPAESESDLYWGWQMAKTVVQVAEENYHEMFVHLAQTHLVSEAFCLATQRTLAPSHPLHVLLAPHFEGTLFINEGAARILLPSAGFIDVMFAAPIQDTQATAGGNRLGFDFYRGMLPESLKARNVDDPLALPDYPYRDDGLLVWNAIRQWAADYVAVYYASDGDVTADVELAAWVGEVIGSGKVAGFRPITGRSQLVEVLTMVIFTASAQHAAVNFPQPSMMTYAPAICAMSAAPAPDSPSGKSEADWLKMMPPTLVALEKVNIYHLLGSVYHGRLGDYRQTGFPYAPVFSDRRVTASGGPLERFQARLKEVEATIRTRNQARRRPYEYLLPSRIPASTNI”, for which the protein production result was “failed”. The value for “MIGDGIENSPLLTDLAFPYRLLGAGKESRECLFLLHGSGVDETTLVPLARRIAPTATLVAARGRIPQEDGFRWFERIDPTRFEQKSILAETAAFAAFTNEAAKRHGLNLDHATFLGYSNGANLVSSLMLLHPGIVRLAALLRPMPVLDHVPATDLAGIRTLIIAGAADETYGPFVPALVTLLSRHGAEVDARIIPSGHDIGDPDAAIVRQWLAGPIAIAQAD” was “not failed”. As for “MNLILTILSALGSFIVTNVDDIFVLMLLFSQARSQAKTGNSGIVSMESKGNRIYPRDIVIGQYLGFALLVLISLLATFGVTLIPDQWVGLLGLIPIYLGVKLFIKGEDEDEGNILSNLNKFNKFYLSVAFITFANGGDNIGIYVPFFSTLNNNQLIITVVTFFIMVAVWCLIGYRLARFRYVSETLEKYGRWIIPIVFIGLGIYIMVENETFRAILSLVN”, the protein production result is recorded as “failed”.

For “MSVKRVLRNTIRKEKEENRVTEPLTETPELSAKYAWFFDLDGTLAEIKPHPDQVVVPDTILQGLQLLATASDGALALISGRSMVELDALAKPYRFPLAGVHGAERRDINGKTHIVHLPDAIARDISVQLHTVIAQYPGAELEAKGMAFALHYRQAPQHEDALMTLAQRITQIWPQMALQQGKCVVEIKPKGTSKGEAIAAFMQEAPFIGRTPVFLGDDLTDESGFAVVNRLGGMSVKIGTGATQASWRLAGVPDVWSWLEMITTALQQKRENNRSDDYESFSRSI”, the protein production entry is given as “failed”.
